# Measured values from PMC11154709, “4S-fluorination of ProB29 in insulin lispro slows fibril formation” (The Journal of Biological Chemistry, 2024).
# Experiments:
# [1] = Far-UV circular dichroism (secondary structure); assay type: physicochemical; conditions: for Ellipticity ratio (208/222 nm): 60 µM insulin or lispro variant, 100 mM phosphate, pH 8.0
# Method: Figure 2 Biological activity and CD spectroscopy of lispro variants.A, lispros were injected subcutaneously into diabetic mice, and blood glucose was measured over time after injection. The data presented here represent the mean ± SD of 3 to 6 biological replicates. B–E, far-UV circular dichroism spectra (60 μM lispro in […] phosphate buffer, pH 8.0). […] 4R-F, 4R-fluoroproline; 4S-F, 4S-fluoroproline.
# The secondary structure of each insulin lispro variant was probed by circular dichroism spectroscopy. […] All lispro samples were further analyzed by analytical ultracentrifugation (Fig. S3). To determine the dissociation constant of each variant, we fit the data to a reversible monomer-dimer equilibrium ([29]). […]
# Circular dichroism spectroscopy:
# Equilibrium measurements: The circular dichroism spectra of insulin or lispro samples (60 µM in
# 100 mM sodium phosphate, pH 8.0) were measured at 25°C in 1 mm quartz cuvettes using a step
# size of 0.5 nm and averaging time of 1 s on an Aviv Model 430 Circular Dichroism
# Spectrophotom eter. A reference buffer spectrum was subtracted from each sample spectrum. […]
# Analytical ultracentrifugation: […]
# [2] = Analytical ultracentrifugation, velocity sedimentation: hydrodynamic parameters; assay type: physicochemical; conditions: 140-206 µM in 100 mM phosphate buffer, pH 8.0, 60,000 RPM, 20 °C, brackets 95% confidence interval
# Method: Lispro variants (140–206 μM in 100 mM phosphate buffer, pH 8.0) were analyzed by velocity sedimentation at the Canadian Center for Hydrodynamics at the University of Lethbridge using absorbance optics. All samples were measured at 60,000 RPM and 20 °C. Data were analyzed with UltraScan III version 4.0 release 6606 ([38]). Velocity data were initially fitted with the two-dimensional spectrum analysis ([39]) to determine meniscus position and time- and radially-invariant noise, and to generate molecular weight distributions. Two-dimensional spectrum analysis results were refined using the genetic algorithm approach ([40]). Sedimentation and diffusion coefficients derived from the genetic algorithm analysis were transformed to molar mass distributions, assuming a partial specific volume of 0.7248 ml/g for all lispro variants. The enhanced van Holde-Weischet analysis ([41]) was used to determine diffusion-corrected sedimentation coefficient distributions. For the Kd analysis, AUC data were fitted with a discrete model genetic algorithm approach ([29]), assuming the known molar mass of the monomer and floating the Kd, koff, total concentration, partial specific volumes, and frictional ratios as reported in Table S3. […]
# Analytical ultracentrifugation:
# Lispro variants were formulated at 140 -206 µM in 100 mM phosphate buffer, pH 8.0. Velocity sedimentation experiments were performed at the Canadian Center for Hydrodynamics at the University of Lethbridge using absorbance optics. High concentrations sample s were measured at 237 nm, intermediate concentration samples at 232 nm, and low concentration samples at 225 nm. All samples were measured at 60,000 RPM and 20°C in standard Beckman Coulter cell […]
# housings fitted with 0.3 cm epon-charcoal centerpieces for the high concentration samples, and 1.2 cm epon-charcoal centerpieces for the intermediate and low concentration samples. All cells were fitted with sapphire windows. Data were analyzed with UltraScan III version 4.0 release 6606. (38) Velocity data were initially fitted with the two -dimensional spectrum analysis (39) to determine meniscus position and time - and radially-invariant noise, and to generate molecular weight distributions. 2DSA results were refined using the genetic algorithm (GA) approach. (40) Sedimentation and diffusion coefficients derived from the GA analysis were transformed to molar mass distributions (see Figure S2), assuming a partial specific volume of 0.7248 ml/g for all lispro variants. The enhanced van Holde -Weischet analysis (41) was used to determine diffusion - corrected sedimentation coefficient distributions. For the K d analysis, AUC data were fitted with a discrete model genetic algorithm (DMGA) approach,(29) assuming the known molar mass of the monomer, and floating the K d, koff, total concentration, partial specific volumes, and frictional […]
# Lispro samples (60 µM in 100 mM sodium phosphate, pH 8.0) were centrifuged at 22,000 g for 1 h at 4°C, before 1 µM thioflavin T (ThT) was added. Each lispro (200 µL) was added to a 96 -well, black, clear bottom plate (Greiner Bio -One) and sealed. Samples were shaken continuously at 960 rpm on a Varioskan multimode plate reader at 37°C, and fluorescence readings were recorded every 15 min (444 nm excitation, 485 nm em ission). Fibrillation runs were performed on at least two separate HPLC fractions, each in triplicate or quadruplicate, and on two different days. The growth phase of each fibrillation replicate was fit to a linear function; f ibrillation lag times were reported as the x-intercept of this fit. Fibril samples were stored at 4°C until analysis by transmission electron microscopy (TEM).
# Transmission electron microscopy:
# Lispro fibrils were briefly centrifuged (5 kg, 1 min), then washed twice and resuspended in ddH 2O.
# Fibrils were stained with 2% uranyl acetate on a 300 -mesh formvar/carbon coated copper grid (Electron Microscopy Sciences) and imaged on a Tecnai T12 LaB6 […] transmission electron […]
# [3] = target: reversible monomer-dimer equilibrium; conditions: read-out: Kd (monomer-dimer), previously reported; cited from earlier work
# Text: The secondary structure of each insulin lispro variant was probed by circular dichroism spectroscopy. […] All lispro samples were further analyzed by analytical ultracentrifuga ...
Substance,Ellipticity ratio (208/222 nm) ([1]; 25 °C),Partial specific volume PSV [2],Dimer diffusion coefficient D [2],Dimer frictional ratio [2],Dimer sedimentation coefficient s [2],Monomer diffusion coefficient D [2],Monomer frictional ratio [2],Monomer sedimentation coefficient s [2],Kd [3] [mM],"oligomeric state at 60 μM ([1]; 60 μM, statement in discussion of CD spectra)","CD spectrum ([1]; far-UV CD, 60 μM lispro in 10 mM phosphate buffer, pH 8.0 (Fig. 2; SI: 100 mM sodium phosphate), 25 °C)"
"KP-44-diF: insulin lispro with ProB29 replaced by 4,4-difluoroproline",1.61 ± 0.05,"0.67 [0.64, 0.70] ml g-1","0.99 [0.84, 1.14] µm2/s","1.50 [1.40, 1.60]","1.59 [1.30, 1.88] S","1.24 [1.16, 1.32] µm2/s","1.50 [1.40, 1.60]","1.00 [0.95, 1.04] S",–,–,–
"insulin lispro: fast-acting insulin with inversion of the residues ProB28 and LysB29; Humalog, Eli Lilly [reference compound]",1.63 ± 0.07,"0.72 [0.70, 0.74] ml g-1","1.10 [0.99, 1.21] µm2/s","1.31 [1.20, 1.43]","1.48 [1.25, 1.72] S","1.26 [1.16, 1.35] µm2/s","1.44 [1.32, 1.57]","0.85 [0.81, 0.88] S",1.1,monomeric,increased negative ellipticity at 208 nm and decreased negative ellipticity at 222 nm
KP-4S-F: insulin lispro with ProB29 replaced by 4S-fluoroproline,1.59 ± 0.06,"0.68 [0.67, 0.69] ml g-1","1.20 [1.05, 1.35] µm2/s","1.23 [1.08, 1.37]","1.87 [1.63, 2.10] S","1.32 [1.29, 1.36] µm2/s","1.40 [1.35, 1.44]","1.03 [1.00, 1.05] S",–,–,–
KP-4R-F: insulin lispro with ProB29 replaced by 4R-fluoroproline,1.62 ± 0.06,"0.69 [0.69, 0.70] ml g-1","1.31 [1.08, 1.55] µm2/s","1.12 [0.90, 1.35]","1.99 [1.58, 2.39] S","1.20 [1.14, 1.25] µm2/s","1.54 [1.47, 1.61]","0.90 [0.88, 0.93] S",–,–,–
